According to paper PMC11170971 (2024):

What was measured:
[1] = biological target: hTLR2 extracellular domain, purified recombinant (human, UniProt O60603 21-588); test: MST
[2] = biological target: T1, zTLR4ba extracellular domain, purified recombinant (zebrafish); test: MST
T1 chain: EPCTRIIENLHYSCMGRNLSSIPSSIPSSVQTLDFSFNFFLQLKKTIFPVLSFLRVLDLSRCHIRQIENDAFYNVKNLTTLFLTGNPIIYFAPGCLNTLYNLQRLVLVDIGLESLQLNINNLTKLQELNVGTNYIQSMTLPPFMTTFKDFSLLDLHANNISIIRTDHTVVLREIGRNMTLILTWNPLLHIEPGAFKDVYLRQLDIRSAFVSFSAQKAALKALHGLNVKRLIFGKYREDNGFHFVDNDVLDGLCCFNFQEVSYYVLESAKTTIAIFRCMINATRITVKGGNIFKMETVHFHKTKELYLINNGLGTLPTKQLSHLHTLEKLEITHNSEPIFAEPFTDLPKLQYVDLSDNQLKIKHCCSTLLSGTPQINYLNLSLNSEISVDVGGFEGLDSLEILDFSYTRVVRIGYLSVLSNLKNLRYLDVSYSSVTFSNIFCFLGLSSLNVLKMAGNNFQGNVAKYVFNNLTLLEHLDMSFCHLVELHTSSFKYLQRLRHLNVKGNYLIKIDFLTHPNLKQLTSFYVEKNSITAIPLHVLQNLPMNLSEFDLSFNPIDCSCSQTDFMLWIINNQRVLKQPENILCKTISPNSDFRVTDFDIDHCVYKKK

Sequence of hTLR2 extracellular domain, purified recombinant (O60603 21-588): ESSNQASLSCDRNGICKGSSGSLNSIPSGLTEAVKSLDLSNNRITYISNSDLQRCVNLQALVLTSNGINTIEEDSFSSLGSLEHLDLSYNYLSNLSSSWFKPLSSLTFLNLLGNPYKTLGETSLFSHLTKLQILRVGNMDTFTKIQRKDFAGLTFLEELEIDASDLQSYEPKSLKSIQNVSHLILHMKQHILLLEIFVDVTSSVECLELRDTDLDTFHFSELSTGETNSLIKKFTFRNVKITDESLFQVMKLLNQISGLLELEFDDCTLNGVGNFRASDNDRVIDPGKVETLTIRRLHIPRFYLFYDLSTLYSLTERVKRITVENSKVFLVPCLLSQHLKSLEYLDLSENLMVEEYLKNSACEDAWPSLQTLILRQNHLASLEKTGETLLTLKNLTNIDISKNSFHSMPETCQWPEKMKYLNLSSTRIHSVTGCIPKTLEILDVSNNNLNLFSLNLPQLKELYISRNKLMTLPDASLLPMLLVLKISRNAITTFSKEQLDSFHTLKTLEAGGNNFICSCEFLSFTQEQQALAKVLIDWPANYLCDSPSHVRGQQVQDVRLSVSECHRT

- Kd [1]: 190 nM
- Kd [2]: 2980 nM
B1: recombinant His-tagged SpaC protein (SpaC pilin subunit of Lactobacillus rhamnosus GG) (natural protein)
chain: MTAKVARTGHLFAVLLILMSMLTGLVTSGSSVVTATDNIRPTYQTDANGTYPTNSWQVTGQQNVINQRGGDQVSGWDNNTIWNGDATDTTNSYLKFGDPNNPDYQIRKYAKETNTPGLYDVYLNVKGNKQQNVKPVDIVLVVDMSGSMESNRWGTNRAGAVRTGVKNFLTSIQNAGLGNYVNVGLIGFSSPGYIGGKSGYISVKLGKAGNASQQQAINGALSPRFQGGTYTQIGLRQGSAMLNADTSGNKKMMILLTDGVPTFSNEVINSEWINGTLYGTNFGSSRDEPGNTARLRWPYTDSSGHYIYDTWPATLGEAKIAKDSGNEVHALGIQLADDDHYMTKEKIRQNMQLITNSPDLYEDADSADAVEAYLNNQAKDIIKNFNTVTDGTITDPIGTQFQYANNQATVTSVGKQTVPASELPSAAIQDGQLTVNHMNLGQDQEVQIHYQVRIKTEDAGFKPDFWYQMNGETLLTPKAGAAAVDFGIPSGRAPATTVYVQKQWRQLSNQSLPDTLNVTVQRKVADGSLDPNWQQTLVLKKADNWKASFTAPAYNNQGQSFSYVVKSEDASGIDLSSFISSQNMDQQTATLTLTNQQYGFQFQKKTTDGTDLSADQLKAMQFNLTQYSDNSFQQASKTNAITSTDLQALAPGYYGIQEAAAPTGYQLDGTTYLFQLTSDGQWQYHGTKDNVTSGSVINGQQTLNPVGDKSDDFTVTGDHQQILTLTKYDEPKPSMTLRVIKQDNQSQYLAGAAFTLQPSAGEAETITSSATSEGQAFATKLVADGTYTMSETKAPDGYQSNPAKIAIQVATTGKEATVTIDGEALKPGESKNGYTLAIDGSTITLQAINQPLAILPHTGGQGYQRLLGIALGLISAAFLLLLVVLIKRRVVKQHD
modifications: labelled with Monolith Protein Labeling Kit Red-NHS (in the MST only)
